Source: patent US20100297124A1 (published 2010)

Columns and labels:
[1] = molecular target: T1, neuropilin 1 (NRP1) on human umbilical vein endothelial cells (HUVEC) (human, UniProt O14786 22-923); test: flow cytometry, Sema3A/Fc (2 µg/ml) on HUVEC, anti-human IgG Fc detection
T1 construct: whole, on cells; also called cell-surface NRP1
Method: (§1) The results shown in FIGS. 8-12 indicate that oligo(G) can promote the internalization of NRP1 by bridging NRP1 to the scavenger SREC-I receptor on endothelial cells. This should disrupt the binding of the NRP1 ligands Sema3A and VEGF165 to endothelial cells due to receptor internalization. To verify this hypothesis, HUVEC were incubated at 37° C. for 1 hour with or without phosphorothioate G18 (sG18) (4 or 16 μg/ml). Subsequently, the cells were washed and binding of Sema3A/Fc and biotin-labeled VEGF165 tested after incubation at 4° C. for 1 hour. Bound Sema3A/Fc was detected by flow cytometry after staining with FITC-conjugated goat anti-human IgG-Fc; bound VEGF165 was detected by flow cytometry after staining with avidin-FITC.

[2] = molecular target: T1, neuropilin 1 (NRP1) on human umbilical …; test: flow cytometry, biotinylated VEGF165 (100 ng/ml) on HUVEC, avidin-FITC detection
Method: as §1

T1 sequence (O14786 22-923): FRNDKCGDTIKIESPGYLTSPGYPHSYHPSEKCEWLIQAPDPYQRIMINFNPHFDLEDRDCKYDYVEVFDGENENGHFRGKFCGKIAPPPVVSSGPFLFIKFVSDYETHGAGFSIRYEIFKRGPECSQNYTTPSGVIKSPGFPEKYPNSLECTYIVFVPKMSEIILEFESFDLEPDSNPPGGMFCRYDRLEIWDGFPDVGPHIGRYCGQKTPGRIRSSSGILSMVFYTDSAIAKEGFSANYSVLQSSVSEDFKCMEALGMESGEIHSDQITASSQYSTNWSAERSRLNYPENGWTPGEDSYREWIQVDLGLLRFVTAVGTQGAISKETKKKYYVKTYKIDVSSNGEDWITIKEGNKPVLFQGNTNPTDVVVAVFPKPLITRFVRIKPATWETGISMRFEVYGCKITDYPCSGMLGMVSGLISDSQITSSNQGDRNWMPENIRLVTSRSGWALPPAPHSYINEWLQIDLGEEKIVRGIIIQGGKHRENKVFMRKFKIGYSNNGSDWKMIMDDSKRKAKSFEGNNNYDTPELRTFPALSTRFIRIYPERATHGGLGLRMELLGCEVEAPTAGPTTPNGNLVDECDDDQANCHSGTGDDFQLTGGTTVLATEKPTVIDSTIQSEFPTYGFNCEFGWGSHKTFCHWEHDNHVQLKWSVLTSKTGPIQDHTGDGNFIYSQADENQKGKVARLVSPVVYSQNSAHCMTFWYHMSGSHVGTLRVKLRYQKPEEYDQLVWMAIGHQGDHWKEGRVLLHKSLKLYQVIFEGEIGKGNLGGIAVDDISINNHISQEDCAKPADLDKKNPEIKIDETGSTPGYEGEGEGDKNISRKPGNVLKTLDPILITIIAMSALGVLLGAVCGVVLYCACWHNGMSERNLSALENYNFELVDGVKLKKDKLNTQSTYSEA

B1: human Sema3A/Fc (Fc fusion, UniProt Q14563 26-771, looked up)
chain: KNNVPRLKLSYKEMLESNNVITFNGLANSSSYHTFLLDEERSRLYVGAKDHIFSFDLVNIKDFQKIVWPVSYTRRDECKWAGKDILKECANFIKVLKAYNQTHLYACGTGAFHPICTYIEIGHHPEDNIFKLENSHFENGRGKSPYDPKLLTASLLIDGELYSGTAADFMGRDFAIFRTLGHHHPIRTEQHDSRWLNDPKFISAHLISESDNPEDDKVYFFFRENAIDGEHSGKATHARIGQICKNDFGGHRSLVNKWTTFLKARLICSVPGPNGIDTHFDELQDVFLMNFKDPKNPVVYGVFTTSSNIFKGSAVCMYSMSDVRRVFLGPYAHRDGPNYQWVPYQGRVPYPRPGTCPSKTFGGFDSTKDLPDDVITFARSHPAMYNPVFPMNNRPIVIKTDVNYQFTQIVVDRVDAEDGQYDVMFIGTDVGTVLKVVSIPKETWYDLEEVLLEEMTVFREPTAISAMELSTKQQQLYIGSTAGVAQLPLHRCDIYGKACAECCLARDPYCAWDGSACSRYFPTAKRRTRRQDIRNGDPLTHCSDLHHDNHHGHSPEERIIYGVENSSTFLECSPKSQRALVYWQFQRRNEERKEEIRVDDHIIRTDQGLLLRSLQQKDSGNYLCHAVEHGFIQTLLKVTLEVIDTEHLEELLHKDDDGDGSKTKEMSNSMTPSQKVWYRDFMQLINHPNLNTMDEFCEQVWKRDRKQRRQRPGHTPGNSNKWKHLQENKKGRNRRTHEFERAPRSV
notes: Commercial reagent (R&D Systems); not shown: Fc portion
**Q.** Does B1 bind [1]?
**A.** binds

B2: Recombinant human VEGF165 (biotinylated) (ligand, UniProt P15692-4 27-191, looked up)
chain: APMAEGGGQNHHEVVKFMDVYQRSYCHPIETLVDIFQEYPDEIEYIFKPSCVPLMRCGGCCNDEGLECVPTEESNITMQIMRIKPHQGQHIGEMSFLQHNKCECRPKKDRARQENPCGPCSERRKHLFVQDPQTCKCSCKNTDSRCKARQLELNERTCRCDKPRR
modifications: biotinylated (sites not given)
notes: Commercial reagent (R&D Systems); also called biotin-VEGF165; biotin-labeled VEGF165
**Q.** Does B2 bind [2]?
**A.** binds
